Reference: patent US20140206609A1 (Sanofi, published 2014)
Where two headings read alike, the source gives them in different places. *1 amine or outer side, *2 acyl side, *3 side chain or, on linkers, in order; H or OH if unused. Where no end group is shown, it is not given here. Side-chain parts run from the residue outwards. [ ]: non-standard residue; d: D form. The star is where a group is joined. γGlu = O=C(O)[C@H](CCC(=O)[*:2])N[*:1]; Palmitoyl = CCCCCCCCCCCCCCCC(=O)*; Aib = CC(C)(N)C(=O)O

T1: human GIP receptor (human) (UniProt P48546)
T1 sequence (looked up): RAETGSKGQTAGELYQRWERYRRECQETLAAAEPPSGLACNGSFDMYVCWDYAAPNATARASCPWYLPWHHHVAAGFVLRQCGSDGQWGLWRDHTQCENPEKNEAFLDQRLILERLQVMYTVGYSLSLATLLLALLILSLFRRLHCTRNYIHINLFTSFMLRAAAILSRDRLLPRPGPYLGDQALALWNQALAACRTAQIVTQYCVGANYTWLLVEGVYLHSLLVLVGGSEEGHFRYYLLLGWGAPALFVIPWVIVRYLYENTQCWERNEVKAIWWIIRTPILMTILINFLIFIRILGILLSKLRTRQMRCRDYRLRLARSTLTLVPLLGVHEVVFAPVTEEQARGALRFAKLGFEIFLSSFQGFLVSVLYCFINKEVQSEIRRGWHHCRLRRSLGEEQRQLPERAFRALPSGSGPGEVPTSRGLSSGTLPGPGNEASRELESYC

T2: human GIP receptor (human, UniProt P48546 22-466)
T2 sequence (looked up): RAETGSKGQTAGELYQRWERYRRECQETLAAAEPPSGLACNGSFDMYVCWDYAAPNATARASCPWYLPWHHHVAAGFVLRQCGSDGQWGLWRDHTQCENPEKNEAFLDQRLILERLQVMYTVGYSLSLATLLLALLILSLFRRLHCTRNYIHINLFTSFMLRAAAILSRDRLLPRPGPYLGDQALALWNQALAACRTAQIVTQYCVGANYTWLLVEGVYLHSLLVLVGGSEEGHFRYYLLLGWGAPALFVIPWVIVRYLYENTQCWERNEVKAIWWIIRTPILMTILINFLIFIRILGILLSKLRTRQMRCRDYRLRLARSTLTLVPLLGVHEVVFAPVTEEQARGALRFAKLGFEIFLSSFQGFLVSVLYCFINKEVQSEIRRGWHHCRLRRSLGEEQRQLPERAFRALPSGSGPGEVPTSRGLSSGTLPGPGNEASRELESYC


Experiments:
Test in all cases: cell-based or functional assay
[1] = molecular target: T1, human GIP receptor (human)
[2] = molecular target: human GLP-1 receptor (human) (UniProt P43220)
Sequence of human GLP-1 receptor (human) (P43220 24-463): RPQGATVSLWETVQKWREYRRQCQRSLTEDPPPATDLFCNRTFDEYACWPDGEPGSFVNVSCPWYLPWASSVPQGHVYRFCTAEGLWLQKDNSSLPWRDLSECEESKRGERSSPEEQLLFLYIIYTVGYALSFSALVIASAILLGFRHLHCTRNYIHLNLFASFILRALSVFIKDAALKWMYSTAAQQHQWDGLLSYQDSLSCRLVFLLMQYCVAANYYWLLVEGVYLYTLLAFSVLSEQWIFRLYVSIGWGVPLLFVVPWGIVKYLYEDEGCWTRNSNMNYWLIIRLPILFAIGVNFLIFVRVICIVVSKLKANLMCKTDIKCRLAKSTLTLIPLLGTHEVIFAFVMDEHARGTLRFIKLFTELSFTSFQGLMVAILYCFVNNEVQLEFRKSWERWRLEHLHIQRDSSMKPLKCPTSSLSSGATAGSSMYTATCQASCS

[3] = molecular target: T3, human GLP-1 receptor (human, UniProt P43220 24-463)
Target sequence in this assay (P43220 24-463): as above

[4] = molecular target: T2, human GIP receptor
[5] = molecular target: T3, human GLP-1 receptor; remark: listed apart in the source
[6] = molecular target: T2, human GIP receptor; remark: listed apart in the source
[7] = molecular target: human glucagon receptor (human, UniProt P47871 26-477)
Sequence of human glucagon receptor (P47871 26-477): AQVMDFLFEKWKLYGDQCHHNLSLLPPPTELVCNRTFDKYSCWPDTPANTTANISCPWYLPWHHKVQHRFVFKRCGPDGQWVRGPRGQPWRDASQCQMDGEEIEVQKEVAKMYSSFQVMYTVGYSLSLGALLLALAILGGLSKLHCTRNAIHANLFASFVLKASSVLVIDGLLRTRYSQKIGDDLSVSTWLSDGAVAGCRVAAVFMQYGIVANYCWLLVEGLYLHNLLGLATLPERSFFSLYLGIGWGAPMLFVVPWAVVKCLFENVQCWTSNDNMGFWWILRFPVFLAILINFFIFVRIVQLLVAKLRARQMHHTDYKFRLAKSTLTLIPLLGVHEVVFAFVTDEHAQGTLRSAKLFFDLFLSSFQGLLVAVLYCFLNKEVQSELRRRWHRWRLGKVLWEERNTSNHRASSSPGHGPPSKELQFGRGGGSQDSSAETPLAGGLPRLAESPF

[8] = molecular target: T3, human GLP-1 receptor; remark: listed apart in the source
[9] = molecular target: T2, human GIP receptor; remark: listed apart in the source

Molecule | EC50 hGLP-1 R [pM] [5] [pM] | EC50 hGIP R [pM] [6] [pM] | EC50 hGLUC R [pM] [7] [pM] | EC50 hGLP-1 R [pM] [8] [pM] | EC50 hGIP R [pM] [9] [pM] | also measured
Tyr(1)Ile(12)-exendin-4 (peptide) |  |  |  |  |  | EC50 hGIP R [pM] [1]: 93.9 pM; EC50 hGLP-1 R [pM] [2]: 1.3 pM
Tyr(1)Ile(12)-GLP1 (peptide) |  |  |  |  |  | EC50 hGLP-1 R [pM] [3]: 5 pM; EC50 hGIP R [pM] [4]: 3660 pM
natural GIP (glucose-dependent insulinotropic polypeptide) (from UniProt P09681 52-93) (ligand) |  |  |  |  |  | EC50 [1]: 0.4 pM
Y[Aib]QGTFTSDLSIQK([γGlu-Palmitoyl])ESRAAQDFIEWLKAGGPSSGAPPPS-NH2 (N-terminus assumed; SMILES CCCCCCCCCCCCCCCC(=O)N[C@@H](CCC(=O)NCCCC[C@H](NC(=O)[C@H](CCC(N)=O)NC(=O)[C@@H](NC(=O)[C@H](CO)NC(=O)[C@H](CC(C)C)NC(=O)[C@H](CC(=O)O)NC(=O)[C@H](CO)NC(=O)[C@@H](NC(=O)[C@H](Cc1ccccc1)NC(=O)[C@@H](NC(=O)CNC(=O)[C@H](CCC(N)=O)NC(=O)C(C)(C)NC(=O)[C@@H](N)Cc1ccc(O)cc1)[C@@H](C)O)[C@@H](C)O)[C@@H](C)CC)C(=O)N[C@@H](CCC(=O)O)C(=O)N[C@@H](CO)C(=O)N[C@@H](CCCNC(=N)N)C(=O)N[C@@H](C)C(=O)N[C@@H](C)C(=O)N[C@@H](CCC(N)=O)C(=O)N[C@@H](CC(=O)O)C(=O)N[C@@H](Cc1ccccc1)C(=O)N[C@H](C(=O)N[C@@H](CCC(=O)O)C(=O)N[C@@H](Cc1c[nH]c2ccccc12)C(=O)N[C@@H](CC(C)C)C(=O)N[C@@H](CCCCN)C(=O)N[C@@H](C)C(=O)NCC(=O)NCC(=O)N1CCC[C@H]1C(=O)N[C@@H](CO)C(=O)N[C@@H](CO)C(=O)NCC(=O)N[C@@H](C)C(=O)N1CCC[C@H]1C(=O)N1CCC[C@H]1C(=O)N1CCC[C@H]1C(=O)N[C@@H](CO)C(N)=O)[C@@H](C)CC)C(=O)O) [SEQ ID NO: 32] | 8.4 | 7.1 | 82.6 | 8.4 | 7.1 | 
Y[Aib]EGTFTSDLSIQK([γGlu-Palmitoyl])EKRAA[Aib]EFIEWLKNTGPSSGAPPPS-NH2 (N-terminus assumed; SMILES CCCCCCCCCCCCCCCC(=O)N[C@@H](CCC(=O)NCCCC[C@H](NC(=O)[C@H](CCC(N)=O)NC(=O)[C@@H](NC(=O)[C@H](CO)NC(=O)[C@H](CC(C)C)NC(=O)[C@H](CC(=O)O)NC(=O)[C@H](CO)NC(=O)[C@@H](NC(=O)[C@H](Cc1ccccc1)NC(=O)[C@@H](NC(=O)CNC(=O)[C@H](CCC(=O)O)NC(=O)C(C)(C)NC(=O)[C@@H](N)Cc1ccc(O)cc1)[C@@H](C)O)[C@@H](C)O)[C@@H](C)CC)C(=O)N[C@@H](CCC(=O)O)C(=O)N[C@@H](CCCCN)C(=O)N[C@@H](CCCNC(=N)N)C(=O)N[C@@H](C)C(=O)N[C@@H](C)C(=O)NC(C)(C)C(=O)N[C@@H](CCC(=O)O)C(=O)N[C@@H](Cc1ccccc1)C(=O)N[C@H](C(=O)N[C@@H](CCC(=O)O)C(=O)N[C@@H](Cc1c[nH]c2ccccc12)C(=O)N[C@@H](CC(C)C)C(=O)N[C@@H](CCCCN)C(=O)N[C@@H](CC(N)=O)C(=O)N[C@H](C(=O)NCC(=O)N1CCC[C@H]1C(=O)N[C@@H](CO)C(=O)N[C@@H](CO)C(=O)NCC(=O)N[C@@H](C)C(=O)N1CCC[C@H]1C(=O)N1CCC[C@H]1C(=O)N1CCC[C@H]1C(=O)N[C@@H](CO)C(N)=O)[C@@H](C)O)[C@@H](C)CC)C(=O)O) [SEQ ID NO: 9] | 3.6 | 5.7 | 7710 | 3.6 | 5.7 | 
